Laboratory results published in PMC3575195 (Nature communications, 2012).
One block for each molecule: values may come before it.

Tests used:
TRPP3-mCherry (human) = TRPP3-mCherry (human) (UniProt Q9P0L9); experiment: single-molecule photobleaching
PKD1L3-mCherry = PKD1L3-mCherry (mouse, UniProt Q2EG98 21-2151); experiment: single-molecule photobleaching
[1] = molecular target: the molecule itself; experiment: single-molecule photobleaching
SEC-MALS = molecular target: the molecule itself; experiment: SEC-MALS

PKD1L3-mCherry, sequence (Q2EG98 21-2151): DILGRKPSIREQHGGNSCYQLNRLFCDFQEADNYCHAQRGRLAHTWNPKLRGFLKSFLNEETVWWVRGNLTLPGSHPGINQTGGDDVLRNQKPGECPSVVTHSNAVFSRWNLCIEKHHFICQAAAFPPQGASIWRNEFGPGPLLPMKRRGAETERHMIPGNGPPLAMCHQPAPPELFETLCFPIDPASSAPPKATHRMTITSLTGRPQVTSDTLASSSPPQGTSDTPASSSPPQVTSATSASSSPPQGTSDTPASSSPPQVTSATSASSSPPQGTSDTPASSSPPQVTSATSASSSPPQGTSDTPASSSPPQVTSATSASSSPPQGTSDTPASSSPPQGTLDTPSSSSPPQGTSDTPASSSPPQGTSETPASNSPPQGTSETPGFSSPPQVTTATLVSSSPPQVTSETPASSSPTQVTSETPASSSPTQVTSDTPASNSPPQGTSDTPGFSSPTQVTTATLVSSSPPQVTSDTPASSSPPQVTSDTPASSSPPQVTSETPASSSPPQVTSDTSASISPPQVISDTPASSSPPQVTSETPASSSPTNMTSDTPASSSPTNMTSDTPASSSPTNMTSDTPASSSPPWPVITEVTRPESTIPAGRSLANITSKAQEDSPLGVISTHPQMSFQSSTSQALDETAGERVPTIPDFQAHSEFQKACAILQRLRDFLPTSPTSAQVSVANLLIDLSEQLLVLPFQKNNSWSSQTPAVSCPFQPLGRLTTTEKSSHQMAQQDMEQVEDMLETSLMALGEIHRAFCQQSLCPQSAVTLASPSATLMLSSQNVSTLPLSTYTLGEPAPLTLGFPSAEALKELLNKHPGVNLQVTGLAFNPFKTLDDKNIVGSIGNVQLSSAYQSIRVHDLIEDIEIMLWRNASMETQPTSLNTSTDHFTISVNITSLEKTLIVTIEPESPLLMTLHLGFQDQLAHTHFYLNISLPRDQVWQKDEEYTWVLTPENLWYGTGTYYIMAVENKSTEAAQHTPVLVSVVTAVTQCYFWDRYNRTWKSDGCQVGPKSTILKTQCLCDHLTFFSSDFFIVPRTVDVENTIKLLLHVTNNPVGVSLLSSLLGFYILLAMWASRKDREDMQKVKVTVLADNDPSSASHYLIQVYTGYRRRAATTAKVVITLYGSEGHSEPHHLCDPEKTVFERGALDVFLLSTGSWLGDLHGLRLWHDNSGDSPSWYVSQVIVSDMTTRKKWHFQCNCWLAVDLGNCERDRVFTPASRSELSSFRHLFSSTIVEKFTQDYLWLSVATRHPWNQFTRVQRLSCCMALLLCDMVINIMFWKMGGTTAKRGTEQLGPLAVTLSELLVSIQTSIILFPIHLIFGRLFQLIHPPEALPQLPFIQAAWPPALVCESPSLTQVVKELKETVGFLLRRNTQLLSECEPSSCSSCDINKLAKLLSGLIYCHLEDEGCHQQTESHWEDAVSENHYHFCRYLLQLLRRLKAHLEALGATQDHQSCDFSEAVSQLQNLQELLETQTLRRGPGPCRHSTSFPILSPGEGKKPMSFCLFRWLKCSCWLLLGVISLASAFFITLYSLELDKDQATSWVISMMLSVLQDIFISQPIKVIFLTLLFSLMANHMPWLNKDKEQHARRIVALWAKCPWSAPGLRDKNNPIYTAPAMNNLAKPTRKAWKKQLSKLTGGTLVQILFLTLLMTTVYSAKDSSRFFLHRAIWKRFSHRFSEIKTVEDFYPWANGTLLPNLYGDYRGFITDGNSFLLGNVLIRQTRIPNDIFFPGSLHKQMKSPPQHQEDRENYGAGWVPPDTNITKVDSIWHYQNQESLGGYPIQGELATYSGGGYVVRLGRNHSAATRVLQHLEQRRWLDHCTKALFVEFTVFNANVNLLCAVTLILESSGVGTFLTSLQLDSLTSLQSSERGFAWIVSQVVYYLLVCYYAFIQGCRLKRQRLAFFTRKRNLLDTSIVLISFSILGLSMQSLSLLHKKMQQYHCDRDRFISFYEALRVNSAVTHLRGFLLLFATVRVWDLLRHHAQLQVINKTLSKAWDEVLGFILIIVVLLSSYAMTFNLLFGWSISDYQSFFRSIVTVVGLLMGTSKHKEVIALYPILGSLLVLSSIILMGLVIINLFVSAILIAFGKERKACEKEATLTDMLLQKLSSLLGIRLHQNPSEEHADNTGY

- stoichiometry N (TRPP3-mCherry (human)): 1
Molecule: PKD1L3-EGFP, Q2EG98 21-2151

- stoichiometry N (PKD1L3-mCherry): 3
B1: TRPP3-EGFP (natural protein)
chain: MNAVGSPEGQELQKLGSGAWDNPAYSGPPSPHGTLRVCTISSTGPLQPQPKKPEDEPQETAYRTQVSSCCLHICQGIRGLWGTTLTENTAENRELYIKTTLRELLVYIVFLVDICLLTYGMTSSSAYYYTKVMSELFLHTPSDTGVSFQAISSMADFWDFAQGPLLDSLYWTKWYNNQSLGHGSHSFIYYENMLLGVPRLRQLKVRNDSCVVHEDFREDILSCYDVYSPDKEEQLPFGPFNGTAWTYHSQDELGGFSHWGRLTSYSGGGYYLDLPGSRQGSAEALRALQEGLWLDRGTRVVFIDFSVYNANINLFCVLRLVVEFPATGGAIPSWQIRTVKLIRYVSNWDFFIVGCEVIFCVFIFYYVVEEILELHIHRLRYLSSIWNILDLVVILLSIVAVGFHIFRTLEVNRLMGKLLQQPNTYADFEFLAFWQTQYNNMNAVNLFFAWIKIFKYISFNKTMTQLSSTLARCAKDILGFAVMFFIVFFAYAQLGYLLFGTQVENFSTFIKCIFTQFRIILGDFDYNAIDNANRILGPAYFVTYVFFVFFVLLNMFLAIINDTYSEVKEELAGQKDELQLSDLLKQGYNKTLLRLRLRKERVSDVQKVLQGGEQEIQFEDFTNTLRELGHAEHEITELTATFTKFDRDGNRILDEKEQEKMRQDLEEERVALNTEIEKLGRSIVSSPQGKSGPEAARAGGWVSGEEFYMLTRRVLQLETVLEGVVSQIDAVGSKLKMLERKGWLAPSPGVKEQAIWKHPQPAPAVTPDPWGVQGGQESEVPYKREEEALEERRLSRGEIPTLQRS
- stoichiometry N [1]: 3

B2: MBP-TRPP3_CT (domain or fragment)
chain: KEELAGQKDELQLSDLLKQGYNKTLLRLRLRKERVSDVQKVLQGGEQEIQFEDFTNTLRELGHAEHEITELTATFTKFDRDGNRILDEKEQEKMRQDLEEERVALNTEIEKLGRSIVSSPQGKSGPEAARAGGWVSGEEFYMLTRRVLQLETVLEGVVSQIDAVGSKLKMLERKGWLAPSPGVKEQAIWKHPQPAPAVTPDPWGVQGGQESEVPYKREEEALEERRLSRGEIPTLQRS
- stoichiometry N (SEC-MALS): 3
